According to doi:10.64898/2025.12.11.693622 (bioRxiv, 2025):
Several values for one entry are separate records, joined by “and”; a condition that tells them apart may be missing. Equal values may be shown once.

Tests used:
crystal structure = biological target: the molecule itself; assay: crystal structure
AUC + SEC = biological target: the molecule itself; assay: AUC + SEC
cross-linking = biological target: the molecule itself; assay: cross-linking
SEC-MALS = biological target: the molecule itself; assay: SEC-MALS

Row | Protein | stoichiometry N (cross-linking) | stoichiometry N (SEC-MALS) | further results
1 | CCDC127 coiled-coil domain (CCDC127^CC, residues 48-120), wild type (domain or fragment, human, UniProt Q96BQ5 48-120, looked up) SQKEVEKEREAYRRRTAAFQQDLEAKYHAMISENRRAVAQLSLELEKEQNRTASYREALISQGRKLVEEKKLL | – | – | stoichiometry N (crystal structure): 2 and 4
2 | CCDC127^CC-K73A (residues 48-120) (domain or fragment, human, UniProt Q96BQ5 48-120, looked up) SQKEVEKEREAYRRRTAAFQQDLEAAYHAMISENRRAVAQLSLELEKEQNRTASYREALISQGRKLVEEKKLL | – | – | stoichiometry N (AUC + SEC): 4
3 | CCDC127^CC D69A (residues 48-120) (domain or fragment, human, UniProt Q96BQ5 48-120, looked up) SQKEVEKEREAYRRRTAAFQQALEAKYHAMISENRRAVAQLSLELEKEQNRTASYREALISQGRKLVEEKKLL | – | – | stoichiometry N (AUC + SEC): 2
4 | CCDC127^1-134-HA (N-terminal variant with the coiled-coil, lacking the C-terminal domain) (domain or fragment, human, UniProt Q96BQ5 1-134, looked up) MNNLNDPPNWNIRPNSRADGGDGSRWNYALLVPMLGLAAFRWIWSRESQKEVEKEREAYRRRTAAFQQDLEAKYHAMISENRRAVAQLSLELEKEQNRTASYREALISQGRKLVEEKKLLEQERAQVMQEKRQV | 2 | – | –
5 | CCDC127^135-260-HA (C-terminal helical bundle domain) (domain or fragment, human, UniProt Q96BQ5 135-260, looked up) QPLRSAYLSCLQREENWQRRARLLLKEFEAVLTERQNIYCSLFLPRSKRLEIEKSLLVRASVDPVAADLEMAAGLTDIFQHDTYCGDVWNTNKRQNGRLMWLYLKYWELVVELKKFKRVEEAILEK | 2 | – | –
6 | MBP-tagged C-terminal helical bundle of CCDC127, C144S variant (MBP-CHB^C144S, residues 137-260) (domain or fragment, human, UniProt Q96BQ5 137-260, looked up) LRSAYLSSLQREENWQRRARLLLKEFEAVLTERQNIYCSLFLPRSKRLEIEKSLLVRASVDPVAADLEMAAGLTDIFQHDTYCGDVWNTNKRQNGRLMWLYLKYWELVVELKKFKRVEEAILEK | – | 2 | –
7 | MBP-tagged C-terminal helical bundle of CCDC127, C144S with L176S/F177S/V222S/W223S (MBP-CHB^C144STip, residues 137-260) (domain or fragment, human, UniProt Q96BQ5 137-260, looked up) LRSAYLSSLQREENWQRRARLLLKEFEAVLTERQNIYCSSSLPRSKRLEIEKSLLVRASVDPVAADLEMAAGLTDIFQHDTYCGDSSNTNKRQNGRLMWLYLKYWELVVELKKFKRVEEAILEK | – | 2 | –
8 | CCDC127 WT-HA (full-length CCDC127 with HA tag) (natural protein, human, UniProt Q96BQ5 1-260, looked up) MNNLNDPPNWNIRPNSRADGGDGSRWNYALLVPMLGLAAFRWIWSRESQKEVEKEREAYRRRTAAFQQDLEAKYHAMISENRRAVAQLSLELEKEQNRTASYREALISQGRKLVEEKKLLEQERAQVMQEKRQVQPLRSAYLSCLQREENWQRRARLLLKEFEAVLTERQNIYCSLFLPRSKRLEIEKSLLVRASVDPVAADLEMAAGLTDIFQHDTYCGDVWNTNKRQNGRLMWLYLKYWELVVELKKFKRVEEAILEK | 2 | – | –
9 | MBP-tagged complete IMS domain of CCDC127, C144S with L176S/F177S/V222S/W223S (MBP-CC-CHB^C144STip, residues 48-260) (domain or fragment, human, UniProt Q96BQ5 48-260, looked up) SQKEVEKEREAYRRRTAAFQQDLEAKYHAMISENRRAVAQLSLELEKEQNRTASYREALISQGRKLVEEKKLLEQERAQVMQEKRQVQPLRSAYLSSLQREENWQRRARLLLKEFEAVLTERQNIYCSSSLPRSKRLEIEKSLLVRASVDPVAADLEMAAGLTDIFQHDTYCGDSSNTNKRQNGRLMWLYLKYWELVVELKKFKRVEEAILEK | – | 2 to 3 | –
10 | MBP-tagged complete IMS domain of CCDC127, C144S (MBP-CC-CHB^C144S, residues 48-260) (domain or fragment, human, UniProt Q96BQ5 48-260, looked up) SQKEVEKEREAYRRRTAAFQQDLEAKYHAMISENRRAVAQLSLELEKEQNRTASYREALISQGRKLVEEKKLLEQERAQVMQEKRQVQPLRSAYLSSLQREENWQRRARLLLKEFEAVLTERQNIYCSLFLPRSKRLEIEKSLLVRASVDPVAADLEMAAGLTDIFQHDTYCGDVWNTNKRQNGRLMWLYLKYWELVVELKKFKRVEEAILEK | – | 2 | –
